Experimental data taken from the DeepSol protein solubility set.

Test: soluble on expression in E. coli; label from the status in PepcDB or PDB records

## MSLSGETLYQQLVNEWMELIRNGTVRPGERLPSVRKACAMHKVSPSTILQTYRMLEDRGLIEARPQSGFYVKSAASLPLPRMRRQSAAHHTGEVVDQIEAVMGVQSQADFIDLALASPRGSDFYPTTRFKHIMGRLLRQHPELTTDYPFPPGSERLRRQIAQRAVNWGCVLAADELVISNGCTEALQLALRAVCKPGDTVGVESPTYFALLPMLKDLGLAVIEIPTHPTSGLALDALELLLSEKRLNAVVAMPTVHNPLGSTMPPEAKRRLAQLVNDYQVPLIEDVPHAELFYGASTPDAVKAYDRDGWVLLCSSYSKTLAPGFRIGWIAPGRFLSEVRRLKFSSSLGQPALLEETLAEYLESGGYDHHLRLLRRHFISQMEKLRGAVAQHFPDGTRATLPSGGCLLWVELPSHADTMQLFRAALAERITVVPGAMYSAKGRYRNCLRLSCCYPWNEAYQRALIRVGELAGELAEGHEGHHHHHH
  soluble on expression in E. coli: soluble

## MGSDKIHHHHHHMQRYDAVISGAGPAGCSAALSLAQKGRRVLLIDKARFPREKICGDGVTAASTELLEEMGVLELLRQRPGSLTEFRGATFVSPGGTVVQGRILRNGHLSGSSYVIPRMVLDDSLVSRVKEHSSITFLDKTTVTGLVMDGDRARGVATSAGEFCGRIIIAADGAYSPIAKQLDLWNRDKRQQGFAMRAWFSGVEGLGDSIELCYDKAMLPGYGWIFPAGEQRANVGVFLLPRFADQRSTKRLFKSFVKENAFAAARLKNAVMEPGSLKSWPLPFGSFAGRRGRGNVLLAGDAGSFIDPLTGEGIYYALKTGRYAAEAVANALERNDESAALTRYEQLWRGEFSGRVYFPGYAFQHFMNNSWFVDTFMRYTAKKQHRADLLADVVAHNRKRRELFKLLNPFY
  soluble on expression in E. coli: not soluble

## MSLVAMITTVVGSYPVVKKEETFLDKVKKVFGLYDEYKYAIERAVKDQVKAGVNIISDGQVRGDMVEIFTNNMYGFDGKRVVGRVEFIKPITLKDILYAKSIAKKLNPNVEIKGIITGPCTIASSVRVESCYSDNRDENLIYDIAKALRKEVEALKKHVPIIQIDEPILSTGMYDFDVARKAIDIIVDGLNIKFAMHVCGNVYNIIDELNKFNVDILDHEFASNKKNLVILESMEKKVGFGCVNTKVKKVESVEEIKSLIEEGIEILKNNEKLNKNLSDNILIDPDCGMRLLPIDVAFNKLKNMVEATKLIEGHHHHHH
  soluble on expression in E. coli: soluble

## MGSDKIHHHHHHMVKVEIDEGSGFCFGVVTAIHKAEEELAKGVTLYCLGDIVHNSREVERLKEMGLITINHEEFKQLHNAKVLLRAHGEPPETYIIAKENNIEIIDATCPVVLRLQKRIKQEYMQEDLDEKQIVIYGKNGHAEVLGLVGQTTGKAIVIEKLDEARRLDFSKSIRLYSQTTKSLDEFWEIVEYIKEHISPDVTFEYYDTICRQVANRMPNLRKFAASHDLIFFVSGKKSSNGKMLFEECKKVNPNSHLIDSADEIDDSLLPGVNSIGVCGATSTPKWLMEEISEAIKAQIKRQ
  soluble on expression in E. coli: not soluble

## EVVVVGYSTQKKESLTGALQTVKSDKLKDITTPSVENMLNGKVPGVYVAPGSGQPGSGGAVVIRGQATLSGTTAPLWVIDGVIVGSNAGALNPSDIETMTILKDAASTAIYGSQGANGVILVTTKNGK
  soluble on expression in E. coli: not soluble

## MSLTVSARRADAQRNRELILDAAREQLREPGELKMNAVAKACGIGQGTLYRHFPTREDLLVEVYRHDVEELVAAASDMVSTRSPVEALAGWFERVAAYARVKNHVFAAVEAATWRDLAAHSLGPIGEAVELLLAAGRAEGSMRADVEARDVIVLIGWLSRLDDTELDERGPRLLSVLLDGLRTPQGEGHHHHHH
  soluble on expression in E. coli: soluble

## MSLDWQTLLTRERLGKPVHSNDELGRSAFHKDHDRIIFSGAFRRLGRKTQVHPVSSNDHIHTRLTHSLEVACVGRSLGMRVGEILREELPEWCDPSDLGVIVQSACLAHDIGNPPFGHSGEDAIRNWFQQAAGRGWLDEMSDAERSDFLHFEGNAQGFRVLTQLEYHQFDGGTRLTYATLGTYLKYPWTSRHAEALGYKKHKFGCYQSELPLLEQITHKLGMPQLDDERWARHPLVYLMEAADDICYGLIDLEDGLEMELLEYSEVEALLLGLVGDDLPDTYRQLGPRDSRRRKLAILRGKAIEHLTNAAARAFVDQQQALLAGQLAGDLVEHMHGPAKLCVQRAKAIAREKIFQDKRKTLHEIGAYTTLEILLNAFCGAALEQYGGHTPSFKNRRILDLLGRNAPDPQWPLYRAFLQVIDFIAGMTDSYATEMAREMTGRSSEGHHHHHH
  soluble on expression in E. coli: soluble

## MSLKWAHPIPFPETGCVLVATEKLDGYRTFARTVVLLLRAGTRHPQEGPFGVVINRPLHKNIKHMKSTKTELATTFSECSLYFGGPLEASMFLLKTGDKTKIPGFEEVMPGLNFGTRNSLDEAAVLVKKGVLKPQEFRFFVGYAGWQLDQLREEIESDYWHVAACSSDLICGASSENLWEEILQLMGGQYSELSRKPKLDIEGHHHHHH
  soluble on expression in E. coli: soluble

## SNAIGLIITALPEPYWIVLHDRIVNVISSSSLTSETEWVGYPFRLFDFTACHQSYSEMSCSYTLALAHAVWHHSSIGQLSLIPKFLTEALLPVVKTEFQLLYVYHLVGPFLQRFQQERTRCMIEIGVAFYDMLLNVDQCSTHLNYMDPICDFLYHMKYMFTGDSVKEQVEKIICNLKPALKLRLRFITHISKMEPAVPPQALNSGSPAPQSNQVPASLPVTQ
  soluble on expression in E. coli: soluble

## MSNQLAVSDVPTAAWTSQQPRSPRMFDQENGFSQNFQPFMQQNKTVNPCTISDDVREEMMRLRRRENAFKTALCKTFQLTKACSYGEQCKFAHSVEELQLKHQNLGINNPKYKTVLCDNFSTTGHCKYGTKCQFIHRTVEPASLKIQNPLVPRFPSWFAPPSSLAREFLCLNHFEASTSSSTTQKLTSSNLSTSTFRYY
  soluble on expression in E. coli: not soluble

## MSLKITNVQTQKVLVPLKKPLITAIHKTDSVGVVIVKIETDTGLVGENYVFALNKDRLDVFDAMIKSLTQFLIGNNPVYVEKIWQQMWQDCNPVGQKGIAISAISAIDTALWDLIGKQANMPLYQVFGACRDKVKTYASSGLWLSSNIDELIEEAHGFIDQGFRSMKLRLGKPDLKEDVERARALRASVGDDIEILTDANQSLTPRQAIALGRQLEDLNIAWLEEPVPAHDLAGHNRVLEAINIPVASGETDYTRFGMKDMLDHKAVDILMPDLQRIGGLSEFRKAAALASAYHIPVSSHIFTEQSLSIAGSADNCISVEHVDWFAPLYQEKIVINDGFIDMPMGAGIGFNFDYDFIDQNLIEGHHHHHH
  soluble on expression in E. coli: soluble

## MGSDKIHHHHHHMTDAVEILGAERSGRWVVTCDHACNRVPDDVAGGDLGLPPADMARHIAYDVGALGVARAMGEALNGPVVTSRFSRLVIDPNRGEDDPTLLMQIYDGSIIPANRGASQAEIDRRLDRFHRPYHRALAHVIAQRDDPIVVAIHSFTPQLIGRAPRPWHVSVLYAGDTRLPYPLLARLRDEDDLCVGDNEPYSGHLPGDALDRHGVQPGRLHVLIEVRNDLIETAEDQARWGVRLAQMLEAAATSADL
  soluble on expression in E. coli: not soluble

## MGYNTIPAGKDLPNDIYVAIEIPANASPIKYEIDKDMDALLVDRFMATPMFYPANYGYINNTLADDGDALDVLVITPYPVAPGSVIRARPVGVLKMSDEAGGDEKLLAVPHEKLTQLYNDIHDIDDVPQLLKDQIVHFFEHYKDLEKGKWVKVEGWENADAARAAIVKSAAAYKG
  soluble on expression in E. coli: soluble

## MGRWWRYKWITFHPSLTQHWLWYAYNTKTGGVLAYTFGPRNDETCRELLALLTPFCIGMVTSDDWGSYAREVPKEKHLTGKIFTQRIARNNRTLRTRIKRLARKTICFSRSVEIHEKVIGSFIEKHMFYLEHHHHHH
  soluble on expression in E. coli: soluble

## MSLDIRGMTVEEAEPVVKKFIDDLMMNGISKGYIIHGKGTGKLASGVWEILRKDKRVVSFRFGTPSEGGTGVTVVEVKEGHHHHHH
  soluble on expression in E. coli: not soluble

## MPTNVTAEYLAAEEEYRNAKTIPEKIRALEKMYALVPKHKGTEKLRLQIKRRLAELRRELEKQRQQRKGGGYSLAVKKEGAAQIVLVGLPNVGKSELLRALTGVDVESADYPFTTTEPVPAMMNYKDVQIQLVEVPGLLEGAALGKGMGPQLLAVIRNADAIAIVIDLSEDPIKQMEILLREFERAGIKVNKRRPRVEIRKTPSGGIVINGAENIKGDLSEVMRMLREEKIHSAEITVKEPVTLEEFADALDDSLVWKKAIIIANKGDSPGSKENYHKLINKYGEKFKIVPVSAKKRINLEAVKEAIYDVAEIIRVFTKSPGEEPAYPPIALKRGATVMDVAERIHKDLVKNFRYARVWGKSVKFPGQRVGPDHVLEDGDIVEIHAK
  soluble on expression in E. coli: soluble

## PETVCWGHVEEVELINDGSGLGFGIVGGKTSGVVVRTIVPGGLADRDGRLQTGDHILKIGGTNVQGMTSEQVAQVLRNCGNSVRMLVARDPAGDISVT
  soluble on expression in E. coli: soluble

## MSSYKNILVAIDGSYESELAFEKGVSVALRNDANLLLTHVVDTRALQSVATFDAYIYEKLEQEAHSVLDDYENQARERGLEKVRQIIEFGNPKPLLATEIPEREHVDLIMLGATGLNAFERLLIGSSSEYILRHAKVDLLVVRDPEKTL
  soluble on expression in E. coli: not soluble

## TAGFSLNVLTINTHKGFTAFNRRFILPELRDAVRSVSADIVCLQEVMGAHEVHPLHIENWPDTTHYEFLADTMWSDYAYGRNAVYPEGHHGNAVLSRFPIEYYENRDISVGNGEKRGLLYCRIVPPRSGITIHVICVHLGLRADQRQAQLTMLAEWVNTLPAGEPVVVAGDFNDWRQQANQPLKAQAGLEEIFTRARGRPARTFPVSFPLLRLDRIYVKNAHASRPKALALKQWRHLSDHAPLSVEIHL
  soluble on expression in E. coli: not soluble

## MGSDKIHHHHHHMLVVGASGSGKSTFANCINGLIPFKTKGNITGELYINNQDATVSCLHDRSNVVGTVLQDTDGQFIGLTAAEDMAFLLENNCVEQDDMKKNVSYWAEKVGMIEHLNHRPQDLSGGQKQRVSLGGILIHRTPILILDEPLANLDPATGHETLRLLNNIHEETKSTMIIVEHRLEESLDDTFDRVLLFKDGKIIANTTPSDLLKSSKLKEAGIREPLYCTALKYAEVDVESIDNLANLRDVCMSEHVKFKVKKWIDETSANNDNKYKSEPLLELNEVCVQYSDYSNSVLNNVQLNVYRREMLSIVGHNGAGKSTLAKAICGFLDITGNIQFCNRGFNQLSISERSEFVGYVMQNPNHMISEKMIYDEVALGLRARGMKESDIKIRVENVLKICGLYAFRNWPIAALSYGQKKRVTIASVLVLNPEIIILDEPTAGQDFYHYNEIMSFLIELNRQGKTIIMITHDMHLLSEYSSRTVVLSKGQVVADTTPVLILNDKKICEIASLRQTSLFEMAEYIGISEPQKLVQLFINHDRKVRRQ
  soluble on expression in E. coli: not soluble

## MGHHHHHHSHMISAHRNLHLPGSSNSPASAFLSSWDYRHVPPCPANVVFLVEMGFLHVGQAGLELPTSDDPPTLASQSAGITGVSHRTWQEFASLTVSQAVLRMLVWGPQFENHCSKLLMASEGDSSLVFFLYPLSNLN
  soluble on expression in E. coli: not soluble

## MGHHHHHHSHMRRFQRSTVIDAPRELVWAFHEQADVLEQLTPPWLPVEVVRREGGLGPGAVSEFRLWLGPVPIRWVATHNDDYEPGRCFCDRQSQGPFADWLHRHIFSREGDRTRLIDEVEYALPGGWLPELSVCPVVDAQLERLFAYRQQVTKQWCESRRDAFLQSNRTTKGLQSL
  soluble on expression in E. coli: not soluble

## MNSKKVLFIIFICALTVTGCDTQEQTTIDSGLTLIRATQTLDSLYANYSVSGTCLLRENYPSNVGNYTATYLASEEQKEIPNQYSYLWPYSGTFSAVNALCAATGDESYKTLLDNKVLRGLEKYLDISRSPAGYASYINTASQSDRFYDDNIWLGIDFTDAYLNTKEEKYLKKAQLIWKFIESGADDKLGGGIYWCEQKKVSKNTCSNAPASVFALKMFKAIRDSSYLIKGQELYEWTKKRLQDSTDYLYFDNISLDGKIDKSKYAYNSGQMMQAATLLYQLTGRSHFLKDAQNIAKACYNYFFINFIPEEGEPFKLLKKGDVWFTAVMLRGFIELYQTDHNKTYINSFNQNMDYAWEHVRDEKGLFDIDFSGRTHDDRKWLLTQAAMVEMYARLAVTKLEHHHHHH
  soluble on expression in E. coli: not soluble
